Experimental data from patent publication US20260152552A1 (CURON BIOPHARMACEUTICAL SHANGHAI, published 2026).

molecular target: T1, human L1CAM (L1 cell adhesion molecule), endogenously expressed on the surface of HeLa cells (human, UniProt P32004 20-1257); assay: flow cytometry on HeLa cells (endogenous human L1CAM)
T1 construct: whole, on cells; also called CD171
Procedure: The experimental principle is as follows: HeLa cells express high levels of L1CAM protein on their surface. After incubating humanized L1CAM antibodies with the cells, the binding ability of the antibodies to L1CAM on the surface of HeLa cells can be determined by flow cytometry. The experimental method is descripted as following: Humanized L1CAM antibodies (Human IgG1-Kappa) are diluted in complete medium in a four-fold serial dilution, with seven concentration gradient points. HeLa cells are cultured in DMEM complete medium (Corning, 10-013-CVR) containing 10% FBS (Gibco, 10099-141) and 100 U/mL penicillin mixture (Thermofisher, 15140122). When the cell coverage in the culture container reaches 80-90%, TrypLE (Thermofisher, 12604-013) is used to digest the HeLa cells from the culture container, and they are seeded in a 96-well plate (AXYGEN, P-96-450V-C) at a density of 2.2×10⁶ cells/ml, with 100,000 cells (45 μL complete medium) per well. Then, 5 μL of the antibody dilution is added to each well, gently mixed, and the 96-well plate is incubated at 4° C. for 1 hour. Then, 150 μL of PBS solution containing 2% FBS (Corning, 21-040-CVC) is added to each well, centrifuged at 1400 rpm for 4 minutes, the supernatant is removed, and the wells are washed once more. Then, 50 μL of Alexa Flour 647-labeled goat anti-human fluorescent secondary antibody (Jacksonimmuno, 109-605-088) diluted 1:800 is added to each well, and the 96-well plate is incubated at 4° C. for 0.5 hours. The cells are washed twice with PBS solution containing 2% FBS, then resuspended in 120 μL of PBS, and the cell surface fluorescence signal is detected using a flow cytometer (BD FACS Celesta), obtaining the median fluorescence intensity (MFI). A dose-response curve is generated, and the half-maximal effective concentration (EC50) is calculated using non-linear regression with GraphPad software.

T1 sequence (P32004 20-1257): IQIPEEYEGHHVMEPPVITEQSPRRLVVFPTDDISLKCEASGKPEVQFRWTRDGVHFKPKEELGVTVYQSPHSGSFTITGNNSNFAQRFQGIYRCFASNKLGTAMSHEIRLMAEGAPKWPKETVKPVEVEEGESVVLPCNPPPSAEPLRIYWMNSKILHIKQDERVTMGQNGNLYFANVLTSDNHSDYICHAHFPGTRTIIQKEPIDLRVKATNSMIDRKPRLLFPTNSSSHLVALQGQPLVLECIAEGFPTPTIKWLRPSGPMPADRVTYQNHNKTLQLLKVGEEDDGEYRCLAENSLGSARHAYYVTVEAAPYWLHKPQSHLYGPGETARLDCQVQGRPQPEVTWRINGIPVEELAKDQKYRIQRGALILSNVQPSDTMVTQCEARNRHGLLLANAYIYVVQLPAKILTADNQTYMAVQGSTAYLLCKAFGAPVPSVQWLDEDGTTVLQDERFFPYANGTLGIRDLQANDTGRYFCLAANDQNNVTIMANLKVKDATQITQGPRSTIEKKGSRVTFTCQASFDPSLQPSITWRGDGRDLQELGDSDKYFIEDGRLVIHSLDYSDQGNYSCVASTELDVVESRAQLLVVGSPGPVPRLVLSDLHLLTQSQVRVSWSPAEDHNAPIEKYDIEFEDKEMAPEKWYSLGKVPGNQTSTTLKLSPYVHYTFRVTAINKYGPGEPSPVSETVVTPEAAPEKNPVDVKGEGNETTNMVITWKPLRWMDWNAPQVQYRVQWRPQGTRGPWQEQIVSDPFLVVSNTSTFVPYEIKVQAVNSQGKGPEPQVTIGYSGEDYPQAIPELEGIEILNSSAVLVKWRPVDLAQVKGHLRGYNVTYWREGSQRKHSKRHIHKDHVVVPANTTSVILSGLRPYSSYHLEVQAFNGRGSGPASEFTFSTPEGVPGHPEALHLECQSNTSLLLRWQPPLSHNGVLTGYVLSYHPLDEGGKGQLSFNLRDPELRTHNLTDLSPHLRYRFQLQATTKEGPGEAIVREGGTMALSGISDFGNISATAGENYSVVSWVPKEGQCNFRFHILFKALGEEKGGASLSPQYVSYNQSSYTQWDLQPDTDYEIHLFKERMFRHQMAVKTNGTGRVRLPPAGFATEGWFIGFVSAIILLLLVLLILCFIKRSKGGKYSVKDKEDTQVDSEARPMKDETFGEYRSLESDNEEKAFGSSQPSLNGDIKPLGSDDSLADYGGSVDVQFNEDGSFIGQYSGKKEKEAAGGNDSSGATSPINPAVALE

EC50 [nM] | Binder
2.33 | humanized anti-L1CAM antibody hz26A12C1H3L2 (antibody, V domains shown) VH: QVQLVQSGAEVKKPGSSVKVSCKASGYTFTNYWIQWVRQAPGQGLEWIGYINPSTYYSDYAQKFQGRVTLTADESTSTAYMELSSLRSEDTAVYYCARRQFGLPLFDYWGQGTTVTVSS VL: DIQMTQSPSSLSASVGDRVTITCRASQDVGTAVAWYQQKPGKVPKLLIYWASTLHSGVPSRFSGSGSGTDFTLTISSLQPEDVATYYCQQYSNYPLTFGGGTKVEIK
0.838 | humanized anti-L1CAM antibody hz26A12C1H3L3 (antibody, V domains shown) VH: QVQLVQSGAEVKKPGSSVKVSCKASGYTFTNYWIQWVRQAPGQGLEWIGYINPSTYYSDYAQKFQGRVTLTADESTSTAYMELSSLRSEDTAVYYCARRQFGLPLFDYWGQGTTVTVSS VL: DIQMTQSPSSLSASVGDRVTITCRASQDVGTAVAWYQQKPGKVPKLLIYWASTLHSGVPSRFSGSGSGTDFTLTISSLQPEDVATYFCQQYSNYPLTFGGGTKVEIK
2.99 | humanized anti-L1CAM antibody hz26A12C1H3L1 (antibody, V domains shown) VH: QVQLVQSGAEVKKPGSSVKVSCKASGYTFTNYWIQWVRQAPGQGLEWIGYINPSTYYSDYAQKFQGRVTLTADESTSTAYMELSSLRSEDTAVYYCARRQFGLPLFDYWGQGTTVTVSS VL: DIQMTQSPSSLSASVGDRVTITCRASQDVGTALAWYQQKPGKVPKLLIYWASTLQSGVPSRFSGSGSGTDFTLTISSLQPEDVATYYCQQYSNYPLTFGGGTKVEIK
7.82 | humanized anti-L1CAM antibody hz26A12C1H2L2 (antibody, V domains shown) VH: QVQLVQSGAEVKKPGSSVKVSCKASGYTFTNYWIQWVRQAPGQGLEWMGYINPSTYYSDYAQKFQGRVTITADESTSTAYMELSSLRSEDTAVYYCARRQFGLPLFDYWGQGTTVTVSS VL: DIQMTQSPSSLSASVGDRVTITCRASQDVGTAVAWYQQKPGKVPKLLIYWASTLHSGVPSRFSGSGSGTDFTLTISSLQPEDVATYYCQQYSNYPLTFGGGTKVEIK
0.853 | humanized anti-L1CAM antibody hz26A12C1H2L3 (antibody, V domains shown) VH: QVQLVQSGAEVKKPGSSVKVSCKASGYTFTNYWIQWVRQAPGQGLEWMGYINPSTYYSDYAQKFQGRVTITADESTSTAYMELSSLRSEDTAVYYCARRQFGLPLFDYWGQGTTVTVSS VL: DIQMTQSPSSLSASVGDRVTITCRASQDVGTAVAWYQQKPGKVPKLLIYWASTLHSGVPSRFSGSGSGTDFTLTISSLQPEDVATYFCQQYSNYPLTFGGGTKVEIK
0.562 | humanized anti-L1CAM antibody hz26A12C1H4L2 (antibody, V domains shown) VH: QVQLVQSGAEVKKPGSSVKVSCKASGYTFTNYWIQWVRQAPGQGLEWIGYINPSTYYSDYNQKFQGRVTLTADKSTSTAYMELSSLRSEDTAVYYCARRQFGLPLFDYWGQGTTVTVSS VL: DIQMTQSPSSLSASVGDRVTITCRASQDVGTAVAWYQQKPGKVPKLLIYWASTLHSGVPSRFSGSGSGTDFTLTISSLQPEDVATYYCQQYSNYPLTFGGGTKVEIK
0.646 | humanized anti-L1CAM antibody hz26A12C1H4L1 (antibody, V domains shown) VH: QVQLVQSGAEVKKPGSSVKVSCKASGYTFTNYWIQWVRQAPGQGLEWIGYINPSTYYSDYNQKFQGRVTLTADKSTSTAYMELSSLRSEDTAVYYCARRQFGLPLFDYWGQGTTVTVSS VL: DIQMTQSPSSLSASVGDRVTITCRASQDVGTALAWYQQKPGKVPKLLIYWASTLQSGVPSRFSGSGSGTDFTLTISSLQPEDVATYYCQQYSNYPLTFGGGTKVEIK
24.7 | humanized anti-L1CAM antibody hz26A12C1H2L1 (antibody, V domains shown) VH: QVQLVQSGAEVKKPGSSVKVSCKASGYTFTNYWIQWVRQAPGQGLEWMGYINPSTYYSDYAQKFQGRVTITADESTSTAYMELSSLRSEDTAVYYCARRQFGLPLFDYWGQGTTVTVSS VL: DIQMTQSPSSLSASVGDRVTITCRASQDVGTALAWYQQKPGKVPKLLIYWASTLQSGVPSRFSGSGSGTDFTLTISSLQPEDVATYYCQQYSNYPLTFGGGTKVEIK
0.738 | humanized anti-L1CAM antibody hz26A12C1H4L3 (antibody, V domains shown) VH: QVQLVQSGAEVKKPGSSVKVSCKASGYTFTNYWIQWVRQAPGQGLEWIGYINPSTYYSDYNQKFQGRVTLTADKSTSTAYMELSSLRSEDTAVYYCARRQFGLPLFDYWGQGTTVTVSS VL: DIQMTQSPSSLSASVGDRVTITCRASQDVGTAVAWYQQKPGKVPKLLIYWASTLHSGVPSRFSGSGSGTDFTLTISSLQPEDVATYFCQQYSNYPLTFGGGTKVEIK
1.05 | humanized anti-L1CAM antibody hz49E10H1H7L6 (antibody, V domains shown) VH: QVQLQESGPGLVKPSQTLSLTCTVSGGSISSDYAWNWIRQPPGKGLEWMGYITYSGTTTYNPSLKSRITISRDTSKNQFSLKLSSVTAADTAVYYCTLDHYGNYAYFDYWGQGTTVTVSS VL: DIQMTQSPSSLSASVGDRVTITCRASSSVSFMHWYQQKPGKAPKPWIYASSNLVSGVPSRFSGSGSGTDFTLTISSLQPEDFATYYCQQWSSNPSTFGGGTKVEIK
0.676 | humanized anti-L1CAM antibody hz49E10H1H4L7 (antibody, V domains shown) VH: QVQLQESGPGLVKPSQTLSLTCTVSGGSISSDYAWNWIRQPPGKGLEWIGYITYSGTTTYNPSLKSRVTISVDTSKNQFSLKLSSVTAADTAVYYCARDHYGNYAYFDYWGQGTTVTVSS VL: QIQMTQSPSSLSASVGDRVTITCRASSSVSFMHWYQQKPGKAPKPWIYASSNLVSGVPSRFSGSGSGTDYTLTISSLQPEDFATYYCQQWSSNPSTFGGGTKVEIK
0.377 | humanized anti-L1CAM antibody hz49E10H1H5L7 (antibody, V domains shown) VH: DVQLQESGPGLVKPSQTLSLTCTVSGGSISSDYAWNWIRQPPGKGLEWMGYITYSGTTTYNPSLKSRITISRDTSKNQFSLKLSSVTAADTAVYYCARDHYGNYAYFDYWGQGTTVTVSS VL: QIQMTQSPSSLSASVGDRVTITCRASSSVSFMHWYQQKPGKAPKPWIYASSNLVSGVPSRFSGSGSGTDYTLTISSLQPEDFATYYCQQWSSNPSTFGGGTKVEIK
0.853 | humanized anti-L1CAM antibody hz49E10H1H4L6 (antibody, V domains shown) VH: QVQLQESGPGLVKPSQTLSLTCTVSGGSISSDYAWNWIRQPPGKGLEWIGYITYSGTTTYNPSLKSRVTISVDTSKNQFSLKLSSVTAADTAVYYCARDHYGNYAYFDYWGQGTTVTVSS VL: DIQMTQSPSSLSASVGDRVTITCRASSSVSFMHWYQQKPGKAPKPWIYASSNLVSGVPSRFSGSGSGTDFTLTISSLQPEDFATYYCQQWSSNPSTFGGGTKVEIK
0.633 | humanized anti-L1CAM antibody hz49E10H1H5L5 (antibody, V domains shown) VH: DVQLQESGPGLVKPSQTLSLTCTVSGGSISSDYAWNWIRQPPGKGLEWMGYITYSGTTTYNPSLKSRITISRDTSKNQFSLKLSSVTAADTAVYYCARDHYGNYAYFDYWGQGTTVTVSS VL: DIQMTQSPSSLSASVGDRVTITCRASSSVSFMHWYQQKPGKAPKLLIYASSNLVSGVPSRFSGSGSGTDFTLTISSLQPEDFATYYCQQWSSNPSTFGGGTKVEIK
2.15 | humanized anti-L1CAM antibody hz49E10H1H4L5 (antibody, V domains shown) VH: QVQLQESGPGLVKPSQTLSLTCTVSGGSISSDYAWNWIRQPPGKGLEWIGYITYSGTTTYNPSLKSRVTISVDTSKNQFSLKLSSVTAADTAVYYCARDHYGNYAYFDYWGQGTTVTVSS VL: DIQMTQSPSSLSASVGDRVTITCRASSSVSFMHWYQQKPGKAPKLLIYASSNLVSGVPSRFSGSGSGTDFTLTISSLQPEDFATYYCQQWSSNPSTFGGGTKVEIK
0.404 | humanized anti-L1CAM antibody hz49E10H1H5L6 (antibody, V domains shown) VH: DVQLQESGPGLVKPSQTLSLTCTVSGGSISSDYAWNWIRQPPGKGLEWMGYITYSGTTTYNPSLKSRITISRDTSKNQFSLKLSSVTAADTAVYYCARDHYGNYAYFDYWGQGTTVTVSS VL: DIQMTQSPSSLSASVGDRVTITCRASSSVSFMHWYQQKPGKAPKPWIYASSNLVSGVPSRFSGSGSGTDFTLTISSLQPEDFATYYCQQWSSNPSTFGGGTKVEIK
